Values of other authors as cited in PMC9783754.

Target: S100A12 (Homo sapiens) (UniProt P80511)
Sequence (P80511 2-92): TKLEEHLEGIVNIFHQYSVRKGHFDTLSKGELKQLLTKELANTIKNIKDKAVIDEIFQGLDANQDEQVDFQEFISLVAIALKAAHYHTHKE

Chain of S100A12 (P80511 2-92): as above

Kd: 160 µM
Substance: S100A12 (from UniProt P80511)
